Laboratory results from patent publication US20210155689A1 (SHANGHAI PHARMAEXPLORER, published 2021).

What was measured:
[1] = target: T1, human LAG-3 (full length, on the cell surface) (human, UniProt P18627 23-525); experiment: FACS, HEK293-hLAG-3; 40.000 nM
T1 construct: Full-length human LAG-3 expressed on cells; also called HEK293-hLAG-3; HEK293 cells transfected with LAG-3 gene
T1 sequence: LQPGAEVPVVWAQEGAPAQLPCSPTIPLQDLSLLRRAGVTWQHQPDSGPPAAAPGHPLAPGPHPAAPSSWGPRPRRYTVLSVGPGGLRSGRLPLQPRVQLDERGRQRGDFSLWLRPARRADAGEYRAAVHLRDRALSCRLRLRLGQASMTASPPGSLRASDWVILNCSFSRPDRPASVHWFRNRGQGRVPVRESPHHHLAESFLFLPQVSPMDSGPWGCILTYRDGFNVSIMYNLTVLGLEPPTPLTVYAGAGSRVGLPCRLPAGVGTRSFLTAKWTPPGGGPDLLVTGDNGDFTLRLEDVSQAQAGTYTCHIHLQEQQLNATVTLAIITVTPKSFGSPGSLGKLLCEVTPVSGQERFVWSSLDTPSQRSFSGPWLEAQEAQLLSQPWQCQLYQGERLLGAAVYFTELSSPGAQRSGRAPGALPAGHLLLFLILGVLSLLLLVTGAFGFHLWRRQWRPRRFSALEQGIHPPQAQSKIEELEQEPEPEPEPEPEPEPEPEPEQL
Source text: (§1) The pIRES plasmid with the monkey-derived full-length gene was transfected into the HEK293 cell line to construct a HEK293 stable cell line containing monkey LAG-3 (herein referred to as HEK293-cLAG-3 stable cell line). The HEK293-hLAG-3 stable cell line and HEK293-cLAG-3 stable cell line were expanded in a T-75 cell culture flask to a 90% confluence. The medium was aspirated, and the cells were washed with HBSS (Hanks' Balanced Salt Solution) 1-2 times, then treated with a enzyme-free cell dissociation fluid (Versene solution: Life technology) and the cells were collected. The cells were washed with HBSS buffer for 1-2 times. After counted, the cells were diluted with HBSS to 1-2×10⁶ cells per ml, added with 1% goat serum blocking solution, incubated on ice for 20-30 minutes, and then washed with HBSS for 2 times by centrifugation. The collected cells were suspended in the FACS buffer (HBSS+1% BSA) to 2×10⁶ cells/ml, added as 100 microliters per well to a 96-well FACS reaction plate, added with 100 microliters per well of the antibody sample to be tested, incubated on ice for 1-2 hours. The plate was washed twice with the FACS buffer by centrifugation, added with 100 microliters of fluorescent (Alexa 488)-labeled secondary antibodies per well, and incubated on ice for 0.5-1.0 hours. The plate was washed 2-3 times with FACS buffer by centrifugation, added with 100 μl fixative solution (4% Paraformaldehyde) per well to suspend the cells. 5-10 minutes later, it was washed 1-2 times with FACS buffer by centrifugation. The cells were suspended with 100 microliters of FACS buffer, FACS (FACSCalibur, BD) was used for detection and the results were analyzed.

[2] = target: T2, human LAG-3 on cells (HEK293-hLAG-3 stable cell line) (human, UniProt P18627 23-525); experiment: FACS, HEK293-hLAG-3, antibody 1.600 nM
T2 sequence: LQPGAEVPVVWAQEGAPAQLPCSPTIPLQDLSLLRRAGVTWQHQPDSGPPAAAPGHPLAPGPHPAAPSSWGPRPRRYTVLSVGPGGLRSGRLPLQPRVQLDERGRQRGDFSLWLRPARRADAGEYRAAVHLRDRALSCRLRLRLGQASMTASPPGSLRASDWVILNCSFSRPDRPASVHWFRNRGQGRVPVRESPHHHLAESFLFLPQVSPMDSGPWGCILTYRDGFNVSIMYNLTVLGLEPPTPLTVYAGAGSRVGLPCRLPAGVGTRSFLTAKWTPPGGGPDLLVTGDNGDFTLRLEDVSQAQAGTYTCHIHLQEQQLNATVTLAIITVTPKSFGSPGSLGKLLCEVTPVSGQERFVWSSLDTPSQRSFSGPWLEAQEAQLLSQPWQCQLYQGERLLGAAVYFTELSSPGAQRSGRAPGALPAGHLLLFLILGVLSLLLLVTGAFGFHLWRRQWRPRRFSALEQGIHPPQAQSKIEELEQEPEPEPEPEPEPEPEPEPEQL
Source text: as §1

[3] = target: T3, monkey LAG-3 on cells (HEK293-cLAG-3 stable cell line) (monkey, UniProt P18627 24-525 (human entry)); experiment: FACS, HEK293-cLAG-3, antibody 40.000 nM
T3 construct: Full-length monkey (Chinese monkey) LAG-3 gene expressed on HEK293 cells
T3 chain: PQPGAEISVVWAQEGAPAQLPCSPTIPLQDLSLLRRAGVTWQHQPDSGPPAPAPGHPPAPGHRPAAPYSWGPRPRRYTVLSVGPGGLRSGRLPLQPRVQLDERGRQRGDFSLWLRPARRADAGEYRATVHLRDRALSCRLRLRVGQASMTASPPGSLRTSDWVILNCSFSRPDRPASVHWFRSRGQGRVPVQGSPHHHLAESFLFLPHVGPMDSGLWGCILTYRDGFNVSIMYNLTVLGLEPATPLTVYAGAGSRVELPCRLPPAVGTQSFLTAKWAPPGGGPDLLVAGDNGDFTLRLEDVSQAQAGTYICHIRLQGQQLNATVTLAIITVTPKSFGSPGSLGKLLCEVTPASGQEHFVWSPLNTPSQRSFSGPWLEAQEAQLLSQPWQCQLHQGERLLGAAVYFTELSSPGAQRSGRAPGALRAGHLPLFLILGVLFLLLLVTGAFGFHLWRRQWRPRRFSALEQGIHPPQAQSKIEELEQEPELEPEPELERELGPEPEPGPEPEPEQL
Source text: as §1

[4] = target: T2, human LAG-3 on cells (HEK293-hLAG-3 …); experiment: FACS, HEK293-hLAG-3, antibody 0.000 nM
Source text: as §1

[5] = target: T4, hFc tagged monkey LAG-3 protein (cLAG-3-hFc protein) (monkey; human); experiment: ELISA, cLAG-3-hFc coated; 0.0001 nM
T4 construct: Made in HEK293 cells; also called monkey LAG-3 extracellular domain protein; not shown: human IgG Fc fragment (hFc) of the pCpC vector
T4 chain: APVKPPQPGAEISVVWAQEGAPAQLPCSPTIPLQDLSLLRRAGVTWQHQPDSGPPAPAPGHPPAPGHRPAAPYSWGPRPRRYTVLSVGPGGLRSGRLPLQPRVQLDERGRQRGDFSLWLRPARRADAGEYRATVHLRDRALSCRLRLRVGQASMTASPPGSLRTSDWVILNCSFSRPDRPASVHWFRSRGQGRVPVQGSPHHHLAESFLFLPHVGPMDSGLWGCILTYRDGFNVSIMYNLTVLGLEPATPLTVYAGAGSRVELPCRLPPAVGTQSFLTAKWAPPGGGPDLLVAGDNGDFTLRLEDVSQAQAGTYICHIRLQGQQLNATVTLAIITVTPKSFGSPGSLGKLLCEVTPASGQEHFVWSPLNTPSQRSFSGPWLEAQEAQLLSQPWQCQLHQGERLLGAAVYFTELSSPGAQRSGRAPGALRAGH
Procedure: The plate was sealed with plastic film and incubated overnight at 4° C. The plate was washed 2 times with the plate washing solution (PBS+0.01% Tween20) on the next day, and added with the blocking solution (PBS+0.01% Tween20+1% BSA) and blocked at room temperature for 1-2 hours. The blocking solution was poured out, and the plate was added with 50-100 μl of the antibody sample to be tested to each well, incubated at 37° C. for 1-2 hours, and washed 2-3 times with a plate washing solution (PBS+0.01% Tween20). HRP (horseradish peroxidase) labeled secondary antibody was added, and the plate was incubated at 37° C. for 1-2 hours, and washed 2-3 times with a plate washing solution (PBS+0.01% Tween20). 100 μl of TMB substrate was added to each well. After incubated at room temperature for 15-30 minutes, the plate was added with 100 μl of stop solution (1.0N HCl) to each well.

Binder | Mean fluorescence intensity [1] | OD450 [5] | also measured
405B8H3 (mouse antibody purified from hybridoma) (antibody, V domains shown, also called mAb103-405B8H3; 405B81-13) VH: QVQLQQSGAELVRPGASVTLSCKASGYTFTDYEMHWVKQTPVHGLEWIGATDPETGNSAYNQKFKGKAIMTADKSSSTAYMELRSLTSEDSAVYYCISTGWNDWGQGTSLTVSS VL: DIKMTQSPSSMYASLGERVTITCKASQDINSYLSWFQQKPGKSPKTLIYRADRLLDGVPSRFSGSGSGQDYSLTISSLEYGDMGIYYCLQYDEFPYTFGGGTKLEIK | 321 MFI |  | 
409B11E12 (mouse antibody purified from hybridoma) (antibody, V domains shown, also called mAb104-409B11E12) VH: QVQLQQSGAELVRPGASVTLSCKASGYTFTDYEMHWVKQTTVHGLEWIGATDPETSYSAYNQKFKGKAILTADKSSSTAYMELRSLTSEDSAVYYCIATGWNDWGQGTSLTVSS VL: DLKMTQSPSSMYASLGERVTITCKASQDINSYLSWFQQKPGKSPKTLIYRANRLLDGVPSRFSGSGSGQDYSLTISSLEYEDMGIYYCLQYDEFPYTFGGGTKLEIK | 148 MFI |  | 
409D4E10 (mouse antibody purified from hybridoma) (antibody, V domains shown, also called mAb112-409D4E10) VH: QVQLQQSGAELVRPGASVTLSCKASGNTFTDYEMHWVKQTPVHGLEWIGATDPETDNTAYNQKFKGKAILTTDKSSSTAYMELRSLTSEDSAVYYCITSGWNDWGQGTSLTVSS VL: DIKMTQSPSSMYASLGERVTITCKASQDINSYLSWFQQKPGKSPKTLIYRANRLLDGVPSRFSGSGSGQDYSLTISSLEYEDMGIYYCLQYNEFPYTFGGGTKLEIK | 153 MFI |  | 
556F6B8 mouse-human chimeric antibody (antibody, V domains shown, also called mAb123-556F6B8; 556F8B8) VH: RVQLKQSGPGLVQPSQSLSITCTVSGFSLIKYGVHWVRQSPGEGLEWLGVIWRGGITDYNAAFMSRLSITKDNSKSQVFFKMNSLQADDTAIYYCAKWDGPLAMDYWGQGTSVTVSS VL: DIVMTQSHKFLSTSVGDRVSITCKASQDVGTTVAWYQQKPGQSPKLLIYWASTRHTGVPDRFTGSGSGTDFTLTISNVQSEDLADYFCQQYSSYPYTFGGGTKLEIK |  |  | Mean fluorescence intensity [2]: 39.1; Mean fluorescence intensity [3]: 74.4; Mean fluorescence intensity [4]: 3.3
556F6B8 (mouse antibody purified from hybridoma) (antibody, V domains shown, also called mAb123-556F6B8) VH: RVQLKQSGPGLVQPSQSLSITCTVSGFSLIKYGVHWVRQSPGEGLEWLGVIWRGGITDYNAAFMSRLSITKDNSKSQVFFKMNSLQADDTAIYYCAKWDGPLAMDYWGQGTSVTVSS VL: DIVMTQSHKFLSTSVGDRVSITCKASQDVGTTVAWYQQKPGQSPKLLIYWASTRHTGVPDRFTGSGSGTDFTLTISNVQSEDLADYFCQQYSSYPYTFGGGTKLEIK | 81.8 MFI |  | 
105F1E10 (mouse antibody purified from hybridoma) (antibody, V domains shown, also called mAb009-105F1E10) VH: EVQLQQSGPELVKPGASVKMSCRASGYTFTDFKMHWMKQSHGKSLEWIGYIAPNNGGTAYNQKFRGKATLTVNESSNTAYMELRSLTSEDSAVYYCVDWDDVDYWGQGTTLTVSS VL: DIKMTQSPSSMYASLGERVTITCKASQDINSYLSWFQQKSGKSPKTLIYRANRLVDGVPSRFSGSGSGQDYSLTISSLEYEDMGIYYCLQYVEFPLTFGAGTKLELK | 315 MFI |  | 
105F1E10 (LAG-3 mouse-human chimeric antibody) (antibody, V domains shown) VH: EVQLQQSGPELVKPGASVKMSCRASGYTFTDFKMHWMKQSHGKSLEWIGYIAPNNGGTAYNQKFRGKATLTVNESSNTAYMELRSLTSEDSAVYYCVDWDDVDYWGQGTTLTVSS VL: DIKMTQSPSSMYASLGERVTITCKASQDINSYLSWFQQKSGKSPKTLIYRANRLVDGVPSRFSGSGSGQDYSLTISSLEYEDMGIYYCLQYVEFPLTFGAGTKLELK |  | 0.14 OD450 | 
405B8H3 (LAG-3 mouse-human chimeric antibody) (antibody, V domains shown, also called mouse-human chimeric antibody 405B8H3) VH: QVQLQQSGAELVRPGASVTLSCKASGYTFTDYEMHWVKQTPVHGLEWIGATDPETGNSAYNQKFKGKAIMTADKSSSTAYMELRSLTSEDSAVYYCISTGWNDWGQGTSLTVSS VL: DIKMTQSPSSMYASLGERVTITCKASQDINSYLSWFQQKPGKSPKTLIYRADRLLDGVPSRFSGSGSGQDYSLTISSLEYGDMGIYYCLQYDEFPYTFGGGTKLEIK |  | 0.15 OD450 | 
409B11E12 (LAG-3 mouse-human chimeric antibody) (antibody, V domains shown) VH: QVQLQQSGAELVRPGASVTLSCKASGYTFTDYEMHWVKQTTVHGLEWIGATDPETSYSAYNQKFKGKAILTADKSSSTAYMELRSLTSEDSAVYYCIATGWNDWGQGTSLTVSS VL: DLKMTQSPSSMYASLGERVTITCKASQDINSYLSWFQQKPGKSPKTLIYRANRLLDGVPSRFSGSGSGQDYSLTISSLEYEDMGIYYCLQYDEFPYTFGGGTKLEIK |  | 0.14 OD450 | 
409D4E10 (LAG-3 mouse-human chimeric antibody) (antibody, V domains shown) VH: QVQLQQSGAELVRPGASVTLSCKASGNTFTDYEMHWVKQTPVHGLEWIGATDPETDNTAYNQKFKGKAILTTDKSSSTAYMELRSLTSEDSAVYYCITSGWNDWGQGTSLTVSS VL: DIKMTQSPSSMYASLGERVTITCKASQDINSYLSWFQQKPGKSPKTLIYRANRLLDGVPSRFSGSGSGQDYSLTISSLEYEDMGIYYCLQYNEFPYTFGGGTKLEIK |  | 0.19 OD450 | 
556F6B8 (LAG-3 mouse-human chimeric antibody) (antibody, V domains shown, also called 556F8B8) VH: RVQLKQSGPGLVQPSQSLSITCTVSGFSLIKYGVHWVRQSPGEGLEWLGVIWRGGITDYNAAFMSRLSITKDNSKSQVFFKMNSLQADDTAIYYCAKWDGPLAMDYWGQGTSVTVSS VL: DIVMTQSHKFLSTSVGDRVSITCKASQDVGTTVAWYQQKPGQSPKLLIYWASTRHTGVPDRFTGSGSGTDFTLTISNVQSEDLADYFCQQYSSYPYTFGGGTKLEIK |  | 0.18 OD450 | 
